Our source for the protease stability score values is the NTF2 design screens of Basanta et al. (2020).

The data set can be described thus: protease stability score; higher = more stable; yeast display proteolysis, trypsin and chymotrypsin.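 Also: relative to predicted unfolded state with 0 unfolded-like and 1 meaning tenfold more protease.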
The sequence “TEEHEVALRFWRMFLEAITTGDEKRIKELLDPHVQIEINGKHLHGMETLIHRINEIRETWKHVEIKTVEFYNGQIHSHFRVHYVFHVNGKEIERDTDVLLILTKVDGRWHIKSIHIH” showed a protease stability score of 2.52. As for “TEEHHFAERVVREWLKLYYTGDEERNETLADPNVKLDVNGRHYHGRESVSEFLREVYEHWRIREFHIHEFDVFNGVSHVDGELILEINGQKHRYRVRIIIVVINGRLKHIELNQV”, the figure is 1.56; as for “TEEHKFVKDFFIHMIRAWITGDEKELHRLFDPHTKVRIGDYVSHGMERTLEIWHKLWKELGFKHLEVREVRAQGDKSHTDVVYHVDGREKKVHIELEVFNGKATHLELDEK”, 0.519. With “TEEHRATHDYVELLIRAARTGDEDIWKTMFDPDDKLVINGRTHHGREEAVRLLREIRIQIDHVDLREVRVYDGVVEIHTHTELRIIQGDKHLEIRTDQEVHILKIDGRWSNSIVIIH”, the protease stability score turned out to be 1.06. As for “TEEHREIKESVEQWHKDLHTGNEEMLVRLMDPRMRLQIGDKTLHGREEATRWAREFHKRYDHIHDFKIKDYDHYGNYIIIIGTLDGIVDGQRVRTDVRLIFVKVNGRWTIESEEHE”, the figure is 0.346; as for “TEEKEDKDRWYEEVLRAVLTGDFHFLSRLADPDVRVEYGDKEHVGREEVSRFWQEFFERIKNVTIELHDYKVQGDKIHWLINLRFNGREHIVHIELIIIDGRIHEIRVQIR”, 2.02. Then “TEEKEEIDHAFELIWKAIDTGDEKFMTEQADPHTLTILVVDGQEIRLHGMEEFVRTFRELGIKHVRLEDIRIQGNKVEIHIRTNFNGRESEMRVHMEKVDGRWVLRSHRVIFK”, with 1.36; and “TEEKHELEKLAKIMFEIIETGDEKTWDELLDPNMRSDVNGVENIGREKVDKAILHYIKRIPNVRIQFTDMHIQGDKVIIRTEVHIGDYREELIIEVVVVNGRFKSFRLTLRRE”, with 1.22. Regarding “TEEKHMVLKIMEQVLQKWVTGDEDVLDHLLDPDDRLHLLQGDKFVEYHGWEEANKAWNEMRITHIELHDIRAQGDKVTSDGTLDGHFNGRRTRVRVRVHLIIVNGRLKEVELQLH”, the protease stability score stood at 0.924. As for “TEELEELEKMLELVLRSFHTGDEHLLERLADPHAKYHFNGKNLHGWDKLSHLWRKAGVEKVESRIRDLELQGDYVNTDVEMRYNGRTEEVEFRVKKIDGRWIIKEIIIR”, the figure is 0.809; as for “TEEQEESTRAYEEILQYIRTGDERQMTKYADPHVKLIFNGKEIHGREMFVELVKQYGIDHHHIHNWDFINGRVRMETHVRQGDKHDNAHIDMTKFDGKWIVRLFVFV”, 0.856. Then “TEEQEIIQKFLDEMMEYLETGDEHSLRRLADPHARWDVNGREYHGRELFITFFSELTHKLGWTIQKIEIESKRRVGEYVSFRMTIHSEVDGRHKVIIYNFFVFKVNGKWFLKSFKEE”, with 1.47.

“TEEQHEARHLFQLWVYSVITGNEHILHNLVDPHYLLDVGDYHVHGREDTLKVLLEARVEDFRVRDVRVYDGRLESDIEFTGHFNGRKINNKVEMTQEKIDGRWYLKRTKVT” registered a protease stability score of 1.77. “TEEQTHLIRLIEQFVRDEITGNWKSVLKLLDPEVKVILKINGREIHLHGREEITRWVHEWVRHIRVFIEIHHSRAFDGVVEMDTRIIIDIDGVHLSQETRINIYVVDGVLKSMEIHVK” showed a protease stability score of 1.65. Then “TEEREHDHRIFNLFLHWWMTGNEEEIHKYIDPNVRMRLDVNGVEIRDVGREMVMEMLRILYEFLGIDVSRIHSHDTQGDKVVLHGRNHVNGRDIEVHIEWKVINGKLKEVRIEIRER”, with 1.57; and “TEERKEMEEAWDRFVHNIHTGDEHSLLKLVDPHVRVQIGDKEVHGWRYLLQLLRDIITKVKNLTVDLRIEDERMIGNYIELEVILVINFENRYHFIRYHVRHEKVDGKWHLKEISRD”, with 1.08; and “TEESQIALEVLIKTARNKYTGDEDSVRHMADPNVQLHFDGQEIHGMDIIRKMIKHIRIDIEDSRSRDHHVQGDKIHDQTEVVLLIEYNGVHIRRQVRVHIHIWKINGRWILHSEIFE”, with 1.41.

The sequence “TEEVHRYKNMLELFDHAVRTGNEDLLKILFDPNTRIEVGEYHNHGWEAIEFFLKRVDHEHIEDSKLTSHHVQGNYLESHGHMHATLHFNGKELRIHTHVRWHLDKFNGRWVIHSIIIN” returned a protease stability score of 1.33.

As to “TEEYRHVEEVIRMTFELLRTGNEQELEDRADPHAKSNVNGQEIHGRERFTRWFLEMITHLGVKHVRVRHYTVVNGRVIVHLEFDFDGVKIDYTVVIWKINGKWFIKISHEEHH”, the protease stability score was found to be 2.09. Then “TEFEQEVERMIRMWRHLYETGDEKTLSHLVDPNVRVIVDGKHIHGREQVVNEIRRAHIVDDFEIRLEDTKYFEGRAVFTGIIREHGHVDGRTVHKSTKVEIDVVKVDGQWLIHRINFH”, with 1.54; and “TEHDEDLDRWYDVLKHVLHTGDEEAKAKMVDPHVREDVNGQELHGRDDVRRLDRELGVNHFVLRVERLNIQGNKITMRGTLELTVGDKTERRHVIIHMIKIDGKWFTHHEQIR”, with 1.04. Sequence “TEHDHDTERAFKEWFDVVRTGDFHRLERMLDPNVLSRIDGKLIHGRERLLKFWQEYLEHLGANHHEIHHVDIQGDKINIDIRVEYGDKRFTVHVHASKINGQWRVHENEKQ” yielded a protease stability score of 1.02. Then “TEHDQVLLQLSQELFHSVLTGDFDLWTKLMDPNVRVHIISEDEELHRVGWETMIRWLRRFLEELRIHSMRIRRVHHVDGVAHEDGELDGIVDGQRVITRVTLHVITINGRWHSVHLERL”, with 0.801; and “TEHEEISHRLMELLKEALQTGDEEHIRDLADPHVRVIVNGKNIHGREEVHMWLLILNTKFKGLTLRVHHVDIQGEKIILDTRIHVNGRSTTSHVELYVVDGVLKRAHLHIE”, with 1.45; and “TEHEEMIREALEFLIRLLETGDFERLHHLADPNVRLEQGDKEFIGREEWLRLFTEEIRQYKGITIHIHEVEVVDGRVYINGTVHQGDKIRRVIWVIIKIDGKWRIHSVHIR”, with 2.19.

“TEHEHEAEDALEKSIRHFHTGDEDTLKHLMDPNVRNDIDGKHIHGREDVLDIMIRIPNVRSEIDDVRVRHVNGRIEVIVDGILYFNGRTVEVRVILIMQKINGKWYITSLEIRRR” yielded a protease stability score of 0.628.

“TEHEKFKEEWVRMFLRDWLTGNENTLRHLADPDTLLEINGRIFHGMHTISRWTEEHLRRIDHLRLEMHTVDVIGDFAHVHGTLKLHVGDKEHHVTFHINLFTINGRIKSIIVKEE” displayed a protease stability score of 1.43.

In turn, “TEHHERHIKLMRKIIEALLTGDEEILRKLMDPDVRWEQGDKTVIGMEAVIKFLKDVSRHIRIKDIKIERQTDINGRMFTEGHLHIQYGDKEDTQEVHIELDVINGRIKSFHVEYR” returned a protease stability score of 1.65.

“TEHRHLIEQHLRDLQHDMRTGDEDNLHKLADPHVRVDIDGRQLHGREAWSKTMFELRTDIRVDRFDVQGNKIHIEGHLIEHFDGRTINMRVHIIWFKVDGRWLIHEVRIE”: the protease stability score came to 1.22. Then “TEIEEHIREVSEILTDWIITGNEEMIEKLLDPHARVVIGDKEHHGREVVIRFLRHWRLHRFDHRSFILQGEKAILIGDMDGDINGQRINLHVEEIHIIVDGRLKILEVKYK”, with 2.7.

In the case of “TEIEKLLDEIVKHFLWAFLTGDWDKVAKLADPNTKSVWNGVDLVGMHLNEHVLEMLIRRYDVIHSIHLRSYRTQGDKLHVDSELNMIQGDKEETVRVRITLHVVNGRLKSIEVRIE”, the protease stability score was -0.002.

Sequence “TEIKHHVKEMADLFLENLLTGNEDILKKLMDPNALLVVGNKHIHGWEEMIKQWKDVRRHMRIEHVETEDIELQGDKAHIHVNIFGQINGKRKESHVRIHFEVFDGVLRRVEIDER” came in with a protease stability score of 1.18. Then “TEKEEIVEETMKQLLHAEETGDWRTIEHLLDPNTRIIVEFNGVEIVLHGREEAVKFMFDFARHWRIKDFKVESIDIQGNKVHMRIRVDMEFNGKHIRTETNIHTVVVDGRIKSHERRVE”, with 1.63. Then “TEKEELYRKIYELLENLLFTGDEHAWRNNMDPHVKILLNIDGKIHDLHGWHAWHLVLRLLGIDHMEFKDFHVQGDKFHLELTVDFDGREHIMRVDIIVVNGKITSVRVSIE”, with 1.37.
